In assay [1] the target is Human SARS-CoV-2_Wuhan S (SmT1) (SARS-CoV-2 (Wuhan)) (UniProt P0DTC2). As to the kind of experiment: SPR, VHH over immobilised S.
For assay [2], the target named is SARS-CoV spike (S) (SARS-CoV) (UniProt P59594). As to the kind of experiment: SPR, VHH over immobilised S.
The target of assay [3] is Human SARS-CoV-2_Wuhan S (SmT1) (SARS-CoV-2 (Wuhan)) (UniProt P0DTC2). As to the kind of experiment: tandem SPR, immobilized S, orientation 1: VHH alone.
The target of assay [4] is SARS-CoV-2 spike trimer S (Wuhan, SmT1) (SARS-CoV-2 Wuhan). As to the kind of experiment: SPR, antigen on chip. (In SPR one partner is held on a chip, and binding of the other changes the refractive index at the surface.)
Assay [5] deals with SARS-CoV-2 S1-RBD fused to human Fc (S1-RBD-Fc) (SARS-CoV-2 Wuhan; human). As to the kind of experiment: SPR, antigen on chip.
Assay [6] deals with SARS-CoV-2 S1 (aa16-685) (Wuhan) (SARS-CoV-2 Wuhan) (UniProt P0DTC2). As to the kind of experiment: SPR, antigen on chip.
In assay [7] the target is Human SARS-CoV-2_Wuhan S (SmT1) (SARS-CoV-2 (Wuhan)) (UniProt P0DTC2).
Assay [8] has as its target SARS-CoV-2 spike trimer S (Wuhan, SmT1) (SARS-CoV-2 Wuhan). As to the kind of experiment: SPR, antigen on chip. This is another data set of the same source.
For assay [9], the target named is SARS-CoV-2 S1-RBD fused to human Fc (S1-RBD-Fc) (SARS-CoV-2 Wuhan; human). As to the kind of experiment: SPR, antigen on chip. This is another data set of the same source.
The target in assay [10] is SARS-CoV-2 S1 (aa16-685) (Wuhan) (SARS-CoV-2 Wuhan) (UniProt P0DTC2). As to the kind of experiment: SPR, antigen on chip. This is another data set of the same source.
Assay [11] addresses SARS-CoV-2 spike protein S on live virus, Wuhan (strain SARS-CoV-2/Canada/VIDO-01/2020) (SARS-CoV-2 (Wuhan)) (UniProt P0DTC2). As to the kind of experiment: cell-based or functional assay.
Assay [12] deals with Human SARS-CoV-2_Wuhan S (SmT1) (SARS-CoV-2 (Wuhan)) (UniProt P0DTC2). As to the kind of experiment: flow cytometry SVNA, VHH vs biotin-S binding to Vero E6 ACE2. On the technique in general: Flow cytometry measures light scatter and fluorescence of single cells or particles in a stream.
The target is the same in assay [13]. As to the kind of experiment: flow cytometry SVNA, VHH-Fc vs biotin-S binding to Vero E6 ACE2.
The target in assay [14] is SARS-CoV-2 S on CHO-S cells (SARS-CoV-2) (UniProt P0DTC2). As to the kind of experiment: flow cytometry, CHO-S cells.
Assay [15] deals with Human SARS-CoV S (SARS-CoV) (UniProt P59594). As to the kind of experiment: flow cytometry SVNA: VHH-Fc inhibits S binding to ACE2 on Vero E6 cells.
Assay [16] deals with Human SARS-CoV-2_Wuhan S (SmT1) (SARS-CoV-2 (Wuhan)) (UniProt P0DTC2). Described as above.

The source of these data is patent US20240270826A1.

pEC50, pIC50, pKd: −log10 of the molar value. Several values for one entry are separate records, joined by “and”; a condition that tells them apart may be missing. Equal entries are not always repeated. Where two headings read alike, the source gives them in different places.

Usually pKd stands for −log10 of the Kd, conventionally taken in molar units. Usually koff stands for the rate constant with which the complex falls apart. Higher therefore signals a short-lived complex. For orientation: kon means the rate constant with which the complex forms. What is called pIC50 is −log10 of the IC50, conventionally taken in molar units. Higher therefore signals a small IC50. Usually IC99 stands for the concentration needed for an effect of 99%. As for VHH-72 VHH, the pKd in [1] is 7.06; in assay [2], 8.19; in assay [5], 6.73; in [6] it was 6.71; in [8], 6.85; in assay [9] it was 6.70. For the same substance, the pKd in assay [10] is 6.81. Further, the koff in [1] came to 0.106 s⁻¹; in assay [2] it was 0.00656 s⁻¹; in assay [4] it was 0.15 s⁻¹; in assay [5], 0.126 s⁻¹; in assay [6] it was 0.161 s⁻¹; in assay [8], 0.156 s⁻¹. Besides, the figures for the koff in assay [9] and in assay [10] were 0.134 s⁻¹ and 0.146 s⁻¹, respectively. Further, the on-rate (kon) in assay [1] came out at 1.23e+06 M⁻¹ s⁻¹; in assay [2], 1.01e+06 M⁻¹ s⁻¹; in assay [4], 1.06e+06 M⁻¹ s⁻¹; in [5] it was 682000 M⁻¹ s⁻¹; in [6] it was 830000 M⁻¹ s⁻¹; in [8], 1.1e+06 M⁻¹ s⁻¹. Also, the figures for the kon in assay [9] and in assay [10] were 667000 M⁻¹ s⁻¹ and 940000 M⁻¹ s⁻¹, respectively. For the same substance, the End 1st inj (RU) in assay [3] came to 25.8 RU. Besides, the End 2nd inj (RU) in [7] was 37.8 RU and 51.2 RU. For the same substance, in [11], the MN100 was 156 nM. Further, in [12], the negative-log IC50 (pIC50) was 7.23. In addition, the IC99 in [12] turned out to be 9.41 µM. Further, the Imax % in assay [12] stood at 43%.

Broadly, the pEC50 is the EC50 on a negative log10 scale, so that one unit is a factor of ten. A higher pEC50 goes with a small EC50. For the substance VHH-72 VHH-Fc (Fc fusion), in assay [13], the pIC50 is 8.14, the IC99 was determined as 238 nM and the Imax % came out at 57%. Also, in assay [14], the Bmax worked out at 8030 and the pEC50 was 9.70. In assay [11], the LVNA IC50 was found to be 8.46 nM and the MN100 was 1.25 nM. Also, in assay [15], the pIC50 is 8.11. The pIC50 in assay [16] is 8.25.
